Measurements: paper PMC4982613

Legend:
Test in all cases: EMSA
[1] = target: NEIL1 S306A S306A (human) (UniProt Q96FI4); conditions: upper bands may lower Kd; tetrahydrofuran (abasic site analog) at position 14 of strand 1 (N), opposite C; EMSA: 10 pM 32P-DNA, 0-600 nM enzyme, 10% native PAGE, 2 h at 10 mA; binding buffer, salt, pH and temperature not stated; one-site specific binding fit (Prism …)
[2] = target: NEIL1 S207A S207A (human) (UniProt Q96FI4); conditions: multiple complexes (C1+C2+C3) quantified; tetrahydrofuran (abasic site analog) at position 14 of strand 1 (N), opposite C; EMSA: 10 pM 32P-DNA, 0-600 nM enzyme, 10% native PAGE, 2 h at 10 mA; binding buffer, salt, pH and temperature not stated; one-site specific binding fit (Prism …)
NEIL1 WT (human) = NEIL1 WT (human) (UniProt Q96FI4); conditions: tetrahydrofuran (abasic site analog) at position 14 of strand 1 (N), opposite C; EMSA: 10 pM 32P-DNA, 0-600 nM enzyme, 10% native PAGE, 2 h at 10 mA; binding buffer, salt, pH and temperature not stated; one-site specific binding fit (Prism …)
[3] = target: NEIL1 S306E S306E (human) (UniProt Q96FI4); conditions: tetrahydrofuran (abasic site analog) at position 14 of strand 1 (N), opposite C; EMSA: 10 pM 32P-DNA, 0-600 nM enzyme, 10% native PAGE, 2 h at 10 mA; binding buffer, salt, pH and temperature not stated; one-site specific binding fit (Prism …)
[4] = target: NEIL1 TA S207A;S306A;S61A (human) (UniProt Q96FI4); conditions: tetrahydrofuran (abasic site analog) at position 14 of strand 1 (N), opposite C; EMSA: 10 pM 32P-DNA, 0-600 nM enzyme, 10% native PAGE, 2 h at 10 mA; binding buffer, salt, pH and temperature not stated; one-site specific binding fit (Prism …)
NEIL1 S61A S61A (human) = NEIL1 S61A S61A (human) (UniProt Q96FI4); conditions: tetrahydrofuran (abasic site analog) at position 14 of strand 1 (N), opposite C; EMSA: 10 pM 32P-DNA, 0-600 nM enzyme, 10% native PAGE, 2 h at 10 mA; binding buffer, salt, pH and temperature not stated; one-site specific binding fit (Prism …)
[5] = target: NEIL1 DE S207E;S306E (human) (UniProt Q96FI4); conditions: tetrahydrofuran (abasic site analog) at position 14 of strand 1 (N), opposite C; EMSA: 10 pM 32P-DNA, 0-600 nM enzyme, 10% native PAGE, 2 h at 10 mA; binding buffer, salt, pH and temperature not stated; one-site specific binding fit (Prism …)
[6] = target: NEIL1 DA S207A;S306A (human) (UniProt Q96FI4); conditions: tetrahydrofuran (abasic site analog) at position 14 of strand 1 (N), opposite C; EMSA: 10 pM 32P-DNA, 0-600 nM enzyme, 10% native PAGE, 2 h at 10 mA; binding buffer, salt, pH and temperature not stated; one-site specific binding fit (Prism …)
[7] = target: NEIL1 TE S207E;S306E;S61E (human) (UniProt Q96FI4); conditions: upper bands may lower Kd; tetrahydrofuran (abasic site analog) at position 14 of strand 1 (N), opposite C; EMSA: 10 pM 32P-DNA, 0-600 nM enzyme, 10% native PAGE, 2 h at 10 mA; binding buffer, salt, pH and temperature not stated; one-site specific binding fit (Prism …)
[8] = target: NEIL1 S207E S207E (human) (UniProt Q96FI4); conditions: tetrahydrofuran (abasic site analog) at position 14 of strand 1 (N), opposite C; EMSA: 10 pM 32P-DNA, 0-600 nM enzyme, 10% native PAGE, 2 h at 10 mA; binding buffer, salt, pH and temperature not stated; one-site specific binding fit (Prism …)
NEIL1 S61E S61E (human) = NEIL1 S61E S61E (human) (UniProt Q96FI4); conditions: tetrahydrofuran (abasic site analog) at position 14 of strand 1 (N), opposite C; EMSA: 10 pM 32P-DNA, 0-600 nM enzyme, 10% native PAGE, 2 h at 10 mA; binding buffer, salt, pH and temperature not stated; one-site specific binding fit (Prism …)
NEIL1 S61E S61E (human), sequence (Q96FI4 whole entry S61E): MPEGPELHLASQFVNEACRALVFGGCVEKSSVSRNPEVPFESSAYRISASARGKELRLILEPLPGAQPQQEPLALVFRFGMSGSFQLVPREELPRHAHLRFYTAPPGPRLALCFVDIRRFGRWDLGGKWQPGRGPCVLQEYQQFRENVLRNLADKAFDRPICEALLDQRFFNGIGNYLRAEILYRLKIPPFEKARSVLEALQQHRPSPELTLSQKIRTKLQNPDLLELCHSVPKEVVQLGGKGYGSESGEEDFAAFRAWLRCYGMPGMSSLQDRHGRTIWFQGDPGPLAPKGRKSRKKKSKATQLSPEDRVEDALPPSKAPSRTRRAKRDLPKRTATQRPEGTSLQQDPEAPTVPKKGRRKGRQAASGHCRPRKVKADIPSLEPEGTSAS

NEIL1 S306A S306A (human), sequence (Q96FI4 whole entry S306A): as the sequence (Q96FI4 whole entry S61E) above, with E61S, S306A counted along it
NEIL1 WT (human), sequence (Q96FI4 whole entry): as the sequence (Q96FI4 whole entry S61E) above, with E61S counted along it
NEIL1 DA S207A;S306A (human), sequence (Q96FI4 whole entry S207A/S306A): as the sequence (Q96FI4 whole entry S61E) above, with E61S, S207A, S306A counted along it
NEIL1 S306E S306E (human), sequence (Q96FI4 whole entry S306E): as the sequence (Q96FI4 whole entry S61E) above, with E61S, S306E counted along it
NEIL1 S61A S61A (human), sequence (Q96FI4 whole entry S61A): as the sequence (Q96FI4 whole entry S61E) above, with E61A counted along it
NEIL1 TE S207E;S306E;S61E (human), sequence (Q96FI4 whole entry S61E/S207E/S306E): as the sequence (Q96FI4 whole entry S61E) above, with S207E, S306E counted along it
NEIL1 TA S207A;S306A;S61A (human), sequence (Q96FI4 whole entry S61A/S207A/S306A): as the sequence (Q96FI4 whole entry S61E) above, with E61A, S207A, S306A counted along it
NEIL1 S207E S207E (human), sequence (Q96FI4 whole entry S207E): as the sequence (Q96FI4 whole entry S61E) above, with E61S, S207E counted along it
NEIL1 DE S207E;S306E (human), sequence (Q96FI4 whole entry S207E/S306E): as the sequence (Q96FI4 whole entry S61E) above, with E61S, S207E, S306E counted along it
NEIL1 S207A S207A (human), sequence (Q96FI4 whole entry S207A): as the sequence (Q96FI4 whole entry S61E) above, with E61S, S207A counted along it

## TGTCAATAGCAAGNGGAGAAGTCAATCGTGAGTCT / AGACTCACGATTGACTTCTCCCCTTGCTATTGACA [35-mer Furan:C duplex]
[1]
  Kd: 2.3 nM
[2]
  Kd: 3.2 nM
NEIL1 WT (human)
  Kd: 23 nM
[3]
  Kd: 7.8 nM
[4]
  Kd: 13.2 nM
NEIL1 S61A S61A (human)
  Kd: 16.2 nM
[5]
  Kd: 15 nM
[6]
  Kd: 10.8 nM
[7]
  Kd: 1.3 nM
[8]
  Kd: 4.5 nM
NEIL1 S61E S61E (human)
  Kd: 19.6 nM
